Assay results as given in patent publication US20170101472A1 (Regeneron, published 2017).
Substitutions are numbered along the chain they refer to. Numbers in names are those of the source. Blank lines part the entries; values can stand above or below the binder they belong to.

Assays:
[1] = biological target: T1, human LAG3 expressed on HEK293 cells (human, UniProt P18627 23-525); experiment: cell adherence assay, blocks A20 (mouse MHCII) cells on HEK293-hLAG3
T1 construct: also called hLAG3; HEK293/hLAG3
T1 sequence: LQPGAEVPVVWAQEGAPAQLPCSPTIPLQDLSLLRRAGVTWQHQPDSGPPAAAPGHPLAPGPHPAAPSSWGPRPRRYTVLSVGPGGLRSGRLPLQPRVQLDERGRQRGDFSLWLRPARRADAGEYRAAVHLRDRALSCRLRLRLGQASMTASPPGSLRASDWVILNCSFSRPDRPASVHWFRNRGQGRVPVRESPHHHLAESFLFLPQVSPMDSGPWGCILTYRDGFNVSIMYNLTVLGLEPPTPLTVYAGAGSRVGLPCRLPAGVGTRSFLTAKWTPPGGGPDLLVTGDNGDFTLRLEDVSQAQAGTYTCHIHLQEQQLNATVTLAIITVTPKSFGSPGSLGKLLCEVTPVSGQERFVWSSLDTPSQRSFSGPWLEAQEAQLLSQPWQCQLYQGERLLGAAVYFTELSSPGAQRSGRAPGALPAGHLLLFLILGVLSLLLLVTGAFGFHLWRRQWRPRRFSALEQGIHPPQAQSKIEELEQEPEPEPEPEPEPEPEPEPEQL
Experimental: Cells were plated into sterile Nunclon™ Delta 96-Well MicroWell™ Black Optical Bottom Plates (Thermo Scientific). The wells from the perimeter of the plate were not included in the assay design to avoid edge effects.
On the day of treatment, all antibodies were serially (1:3) diluted in RPMI media (without FBS or supplements added). The 9-point dilution ranged between 45 pM to 300 nM, with the last dilution point containing no mAb. […] While the plated HEK293-LAG3 cells were incubating with the test or control antibodies, non-adherent B-cells (RAJI or A20) were labeled with Calcein AM using the following procedure. RAJI and A20 suspension cells were harvested and centrifuged at 1,200 rpm for 5 minutes. Cell pellets were resuspended in 1×PBS and counted. Cells were washed with RPMI, and resuspended in RPMI at a concentration of 10⁶ cells per 1 ml. Cells were labeled by adding 5 μL of Calcein AM per 1 ml of cell suspension and incubated for 30 min at 37° C., at 5% CO₂. […] Subsequently, 10 μL of BD Pharmingen Fc Block (0.5 mg/mL) was added per 1 ml of the Calcein AM labeled cells, which were incubated at RT for 10 minutes. The Calcein AM-stained, Fc-blocked RAJI or A20 cells were resuspended in RPMI to a final concentration of 3×10⁶ cells per 1 ml and subsequently used in the adherence assay.
The labeled suspension cells were incubated with the HEK293 monolayer for 1 hour at 37° C., at 5% CO₂.

[2] = biological target: T2, human LAG3 chimera (extracellular domain of human LAG3 and trans-membrane/cytoplasmic domain of human CD300a) … (human, UniProt P18627 23-450; Q9UGN4 181-299, limits assumed); experiment: cell-based or functional assay
T2 sequence (looked up): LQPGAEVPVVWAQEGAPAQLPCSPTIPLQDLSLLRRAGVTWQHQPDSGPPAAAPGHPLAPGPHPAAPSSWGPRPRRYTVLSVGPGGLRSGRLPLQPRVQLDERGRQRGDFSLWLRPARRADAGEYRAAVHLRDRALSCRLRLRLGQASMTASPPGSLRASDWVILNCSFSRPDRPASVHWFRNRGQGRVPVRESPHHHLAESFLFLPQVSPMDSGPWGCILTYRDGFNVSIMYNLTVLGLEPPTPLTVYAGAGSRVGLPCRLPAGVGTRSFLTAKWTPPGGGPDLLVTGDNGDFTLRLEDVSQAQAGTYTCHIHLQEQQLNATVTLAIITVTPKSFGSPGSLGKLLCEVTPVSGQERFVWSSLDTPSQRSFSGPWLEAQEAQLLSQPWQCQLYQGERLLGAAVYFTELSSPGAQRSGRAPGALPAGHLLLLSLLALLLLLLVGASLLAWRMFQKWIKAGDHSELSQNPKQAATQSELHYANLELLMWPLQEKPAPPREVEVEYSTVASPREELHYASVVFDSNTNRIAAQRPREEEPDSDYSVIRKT

[3] = biological target: T1, human LAG3 expressed on HEK293 cells; experiment: flow cytometry, HEK293/hLAG3 cells
Experimental: The serially diluted antibodies were added to the cell suspension and incubated for 15-30 minutes on ice. The cells were centrifuged and pellets were washed with staining buffer to remove unbound antibodies. […] The cells were centrifuged and pellets were washed with staining buffer to remove unbound secondary F(ab′)2 and fixed overnight with a 1:1 dilution of Cytofix (BD Biosciences, #554655) and staining buffer. Following day, fixed cells were centrifuged and pellets were washed with staining buffer, resuspended and filtered. Fluorescence measurements were acquired on HyperCyt® cytometer and analyzed in ForeCyt™ (IntelliCyt; Albuquerque, N. Mex.) to determine the mean fluorescence intensities (MFI). The EC₅₀ values were calculated from a four-parameter logistic equation over an 11-point response curve using GraphPad Prism. EC₅₀ was defined as the concentration of antibody at which 50% of maximal binding signal is detected. The MFI ratio for each antibody was calculated by dividing the MFI at 100 nM by MFI at 0 nM of antibody concentration.

B2: H4H14813N (antibody, human IgG4, V domains shown)
VH: QVQLQQWGAGLLKPSETLSLTCAVYGGSFSGYYWNWIRQPPGKGLEWVGEISHRGSTNYNPSLKSRVTISLDTSKNQFSLKLTSVTAADTAVYYCSRDEELEFRFFDYWGQGTLVTVSS
VL: EIVLTQSPATLSLSPGERATLSCRASQSVSSYLAWYQQKPGQAPRLLVYGASNRATGIPARFSGSGSGTDFTLTISSLEPEDFAFYYCQQRSNWPLTFGGGTKVEIK
notes: H4H = human IgG4 Fc with S108P hinge mutation
- IC50 [1]: 10 nM
- EC50, AP1-Luc signaling, bispecific mode [2]: 1.07 nM
- EC50, AP1-Luc signaling, peptide mode [2]: 1.01 nM
- EC50 [3]: 1.44 nM
- Ratio of MFI (100 nM/0 nM) [3]: 208

B5: H4sH15462P (antibody, V domains shown)
VH: QVQLVQSGAEVKKPGASVKVSCKASGYTFTNYYIHWVRQAPGQGLDWMGIINPGGGNTNYAQKFLGRVTMTRDTSTTTVYMELSSLRSEDTAIYYCARENWNSYFDNWGQGTLVTVSS
VL: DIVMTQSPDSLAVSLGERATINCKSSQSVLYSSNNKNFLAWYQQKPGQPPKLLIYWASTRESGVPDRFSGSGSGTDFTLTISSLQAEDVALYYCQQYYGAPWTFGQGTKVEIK
notes: H4sH = human IgG4 Fc with 2 or more amino acid changes as disclosed in US20140243504
- IC50 [1]: 3.6 nM
- EC50, AP1-Luc signaling, bispecific mode [2]: 0.148 nM
- EC50, AP1-Luc signaling, peptide mode [2]: 0.486 nM
- EC50 [3]: 0.665 nM
- Ratio of MFI (100 nM/0 nM) [3]: 182

B6: H4H15462P (antibody, human IgG4, V domains shown)
VH: B5 VH
VL: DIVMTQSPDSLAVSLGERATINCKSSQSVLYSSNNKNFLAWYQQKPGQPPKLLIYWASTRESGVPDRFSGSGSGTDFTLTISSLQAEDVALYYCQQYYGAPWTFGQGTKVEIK
notes: as for B2
- IC50 [1]: 7.1 nM
- EC50, AP1-Luc signaling, bispecific mode [2]: 0.224 nM
- EC50, AP1-Luc signaling, peptide mode [2]: 0.344 nM
- EC50 [3]: 0.3 nM
- Ratio of MFI (100 nM/0 nM) [3]: 62.6

B8: H4H17819P (antibody, human IgG4, V domains shown)
VH: EVQLVESGGGLVQPGGSLRLSCVASGFTFSLYAMTWVRQVPGKGLEWVSTISGSGGGTYYTDSVKGRFTISRDNSKNTLYLQMNSLRADDTAVFYCTKESTTGTYSYFYGMDVWGQGTTVTVSS
VL: DIQMTQSPSSLSASVGDRVTITCRASQTISSYLNWYQQKPGKAPKLLIYAASSLQSGVPSRFSGSGSGTDFTLTLSGLQPEDFATYYCQQSYSTPLTFGGGTKVEIK
notes: as for B2
- IC50 [1]: 16 nM
- EC50, AP1-Luc signaling, bispecific mode [2]: > 100 nM
- EC50, AP1-Luc signaling, peptide mode [2]: 2.12 nM
- EC50 [3]: 2.79 nM
- Ratio of MFI (100 nM/0 nM) [3]: 436

B9: H4H17823P (antibody, human IgG4, V domains shown)
VH: EVQLLESGGGLVQPGGSLRLSCAASGFTFRSYAMSWVRQAPGKGLEWVSVISGGGGRTYYTDSVKGRFTISRDNSKSMLYLQMNSLRAEDTAIYYCAKERVTGIDHYYYGVDVWGQGTTVTVSS
VL: B8 VL with T28S, A51T, G66A, T74A, L75I, G77S, S93T
notes: as for B2
- IC50 [1]: 9.4 nM
- EC50, AP1-Luc signaling, bispecific mode [2]: > 100 nM
- EC50, AP1-Luc signaling, peptide mode [2]: 0.688 nM
- EC50 [3]: 1.25 nM
- Ratio of MFI (100 nM/0 nM) [3]: 305

Further binders by falling IC50 [1], results first:

- IC50 [1]: 16 nM
- EC50, AP1-Luc signaling, bispecific mode [2]: 3.69 nM
- EC50, AP1-Luc signaling, peptide mode [2]: 2.54 nM
- EC50 [3]: 2.31 nM
- Ratio of MFI (100 nM/0 nM) [3]: 206
B4: H4H15483P (antibody, human IgG4, V domains shown)
VH: QVQLQQWGAGLLPPSETLSLICAVYGGSFSGYYWSWIRQPPGKGLEWIGEINHRGSTNYNPSLKSRATISVDTSKNQFSLKLSSVTAADTAVYYCSRGEDYYDSSGYSYYFDYWGQGTLVTVSS
VL: B2 VL with V48I, G50D, F85V
notes: as for B2

- IC50 [1]: 16 nM
- EC50, AP1-Luc signaling, bispecific mode [2]: > 100 nM
- EC50, AP1-Luc signaling, peptide mode [2]: 4.91 nM
- EC50 [3]: 2.65 nM
- Ratio of MFI (100 nM/0 nM) [3]: 355
B7: H4H17828P2 (antibody, human IgG4, V domains shown)
VH: EVQLVESGGGLVQPGGSLRLSCAASGFTFKTYAMSWVRQAPGRGLEWVSGISGSGSTSYYADSVKGRFTISRDNYKKTLSLQMNSLRAEDTAVYYCALDIMATVGGLFNNWGQGTLVTVSS
VL: not shown
notes: as for B2

- IC50 [1]: 10 nM
- EC50, AP1-Luc signaling, bispecific mode [2]: 266 nM
- EC50, AP1-Luc signaling, peptide mode [2]: 8.83 nM
- EC50 [3]: 3.86 nM
- Ratio of MFI (100 nM/0 nM) [3]: 414
B1: H4H17826P2 (antibody, human IgG4, V domains shown)
VH: EVQLVESGGGLVQPGGSLRLSCAASGFTFSSYEMNWVRQAPGKGLEWVSYISSSGNTKDYAGSVKGRVTISRDNAKNLLYLQMNSLRAEDTAVYHCARDGGHYDILTGSMSYYYYALDVWGQGTTVTVSS
VL: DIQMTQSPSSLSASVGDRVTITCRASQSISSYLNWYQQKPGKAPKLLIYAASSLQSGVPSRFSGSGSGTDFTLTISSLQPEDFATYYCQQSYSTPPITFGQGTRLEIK
notes: as for B2

- IC50 [1]: 6.3 nM
- EC50, AP1-Luc signaling, bispecific mode [2]: 0.0872 nM
- EC50, AP1-Luc signaling, peptide mode [2]: 0.135 nM
- EC50 [3]: 0.903 nM
- Ratio of MFI (100 nM/0 nM) [3]: 199
B3: H4sH15479P (antibody, V domains shown)
VH: QVQLQQWGAGLLNPSETLSLTCAVYGGAFSDYYWNWIRQPPGKGLEWIGEINHRGSTNYNPSLKSRVTISVDTSKNQFSLRMSSVTAADAAVYYCARGEDYDIWNGYYQEKWGQGTLVTVSS
VL: B2 VL with V29I, S31T, V48I, G50D, N53K, A84V, F85V, Q89H
